Results: article PMC4543619 (British Journal of Pharmacology, 2015)
Like-named read-outs stand apart in the source and are kept apart here.

Columns and labels:
[1] = target: T1, native/full length GTP cyclohydrolase 1 (F‐GCH1), His6-tagged (human, UniProt P30793 1-250); experiment: SPR
T1 sequence (looked up): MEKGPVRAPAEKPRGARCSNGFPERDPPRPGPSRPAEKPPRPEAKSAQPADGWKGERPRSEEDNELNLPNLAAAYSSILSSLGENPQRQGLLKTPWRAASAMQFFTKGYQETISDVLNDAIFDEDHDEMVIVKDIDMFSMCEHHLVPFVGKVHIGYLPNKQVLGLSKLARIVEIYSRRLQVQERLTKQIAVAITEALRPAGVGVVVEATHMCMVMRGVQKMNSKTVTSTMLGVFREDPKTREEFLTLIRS

[2] = target: T1, native/full length GTP cyclohydrolase 1 …; experiment: SPR; remark: listed apart in the source

B1: GCH1 feedback regulatory protein (GFRP), His6 tag cleaved (natural protein)
chain: not shown
For B1, the Kd [1] was 8 nM and the Kd [2] was 1 nM.
